Reference: paper PMC11347664, “KHSRP ameliorates acute liver failure by regulating pre-mRNA splicing through its interaction with SF3B1” (Cell Death & Disease, 2024)

Molecular target: T1, SF3B1-3 (pET15b-SF3B1-3, amino acids 955–1304) (UniProt O75533 955-1304)
T1 construct: SF3B1, amino acids 955–1304, HEAT 11–22 domain; methods are in the supplement; also called HEAT 11–22 domain of SF3B1; source: recombinant protein from pET15b-SF3B1-3
Assay: pull-down; cell-free system; recombinant KHSRP-KH4Q and SF3B1-3; inputs and pulled-down proteins detected by Coomassie staining and Western blotting
Settings: both partners purified

T1 sequence (O75533 955-1304): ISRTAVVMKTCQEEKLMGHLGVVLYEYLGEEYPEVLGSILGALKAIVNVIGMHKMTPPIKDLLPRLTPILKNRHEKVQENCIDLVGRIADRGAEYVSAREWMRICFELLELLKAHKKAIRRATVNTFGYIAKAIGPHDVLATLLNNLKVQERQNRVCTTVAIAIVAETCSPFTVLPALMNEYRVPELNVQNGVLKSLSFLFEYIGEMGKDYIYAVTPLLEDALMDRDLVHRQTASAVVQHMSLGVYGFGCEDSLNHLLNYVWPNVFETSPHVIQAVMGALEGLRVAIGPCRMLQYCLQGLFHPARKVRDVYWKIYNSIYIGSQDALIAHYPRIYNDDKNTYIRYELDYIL

B1: KHSRP-KH4Q (pET15b-KHSRP-KH4Q, amino acids 435–710) (domain or fragment, UniProt Q92945 435-710, looked up)
chain: KCGLVIGRGGENVKAINQQTGAFVEISRQLPPNGDPNFKLFIIRGSPQQIDHAKQLIEEKIEGPLCPVGPGPGGPGPAGPMGPFNPGPFNQGPPGAPPHAGGPPPHQYPPQGWGNTYPQWQPPAPHDPSKAAAAAADPNAAWAAYYSHYYQQPPGPVPGPAPAPAAPPAQGEPPQPPPTGQSDYTKAWEEYYKKIGQQPQQPGAPPQQDYTKAWEEYYKKQAQVATGGGPGAPPGSQPDYSAAWAEYYRQQAAYYGQTPGPGGPQPPPTQQGQQQA
notes: methods are in the supplement; also called KH4–Q-rich domain of KHSRP; source: recombinant protein from pET15b-KHSRP-KH4Q
B1: binds.
